Earlier results as cited in article PMC4459106.

Target: KIM15-31 (HePTP) 15-31 (Homo sapiens) (UniProt P35236)

- Kd: 1300 nM
Substance: ppERK2 (from UniProt P63086)
